Test: soluble fraction after stress (log2 fold change); higher = more stays soluble; pooled small domains, quantitative proteomics
Settings: stress: 75 degC
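Note: 20 min heating vs room temperature control held 20 min.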

Row | Sequence | soluble fraction (log2)
1 | HMDGPGDRLLIAIQENSMTQKKFAQLIGMSPNGLNSIIKGKKRLSRVLAIATERLTGVRADWILQNEQPK | -0.0913
2 | HMDGQPLSERQQEILRWVAEGLSNREIGERLNITPNTVRDHLSEVMRRLEVSNRTSAVSTAFHLGLLP | -0.0654
3 | HMDGRIRFRHAALHDPDVAARLHDYLTTSLPGVRSARVNSQTGSLLLEYDPEVLDRSTLLDLAARAESLL | -0.493
4 | HMDGRSLSHATLEEIRIRAVQRVEAGESPEVVVKALGFSRPRIYEWLALYREGGLEALRAKPV | -1.1
5 | HMDGSEYAGTVRLGDGTLQPVPRFETSNSETPKYLYLVMDVTHDPPVYILEHESAELKSVLGGLVLIGSYS | 0.0157
6 | HMDGTVRGKTTFQELLDWGVPQERIEAVLGGPIPAPGVVIKDYVTAQGKEFSAVRDALQAEVDAVLK | 0.144
7 | HMDGVLLDHLDGFVTTRRGVEAWLEQPTSFNKPSILLVAADGESTRRAIPSIAFGYDFASRHDIPAYDAG | -0.44
8 | HMDGVPPAGSRIRLTVSTQVGDKEFEGTLVPPAGVDLLTLKLANGYNLSHSIADVREVVLIEEGLQGEEP | -0.191
9 | HMDGVSLLFKLMETLPEQQKTILHLRDVEQLEFAEIAKITNTSQANVRVALSRARKKIKDLLLKQY | -2.52
10 | HMDGVYLKSLKQTEQHIHWSGYAQSNAWVSTLMRNLDASPWFESPLLIEIKAATINNSRSNEFDLNVRL | 0.0974
11 | HMDGYTVYTNWGSDTNVARSDQQIQSQIPQLSGATIVGVWTKPIATGGTSYKIRYRTNSGAFTEIDVDQ | -0.256
12 | HMDHKTKLQEVLQKSGDVFIEYRLIKEEGPAHERIFWIEVYVDDQLIGTGQGKSKKLAEQAAAENALAALE | -1.21
13 | HMDIEHREMKLQKLVITADSPLVGKTLKESNVRQRYNFMVVGVEEGQKNLTMINPNRRFEVGDIVWVVGEE | -0.743
14 | HMDIFGREAEVEQILQEVRFGDDPHYRLSIGILPVTGHAGAGKTALVRFIFHHEVARAEFTVRMWVHV | 0.154
15 | HMDIGKNIQTIRYANKLTQDQVIAKLNLMGISMSKSTYAKLETNRMNIKVSELVALAKIFHTDINAF | -2.62
16 | HMDIGTYTVTASALNIRQYPTASSAKTGSYPNGSIVTIYEYLTDGSWGRTDDGWISMNYVSRRY | -1.93
17 | HMDIHSEEYILGQNIRKYRLRLGWSQADLSNAVDIDRADISKYENGAKGIMSSTLLRKFAKALGVSMDALM | -3.32
18 | HMDILPRMVASEMRAVGVPPERMTREEKGTVIRNLMNAGIHQMKGAVVEIARQLHLSEPTVYRYIKREKG | -0.664
19 | HMDINMELGKNIRRLRKLNNLTQQSLANQMNRSKTLIALWEKGERDPSSIDLKRLSEIFNVRADDIIG | -0.799
20 | HMDIRMLLSDREEEIMILLSKGLSISEAANRMQIGQASAATYLNRARRKLKAETVRQAVAIWTGD | -1.87
21 | HMDISAFDTEFIISKFGGIRPMAQKLGVPVSTVQGWKQRQTIPQNRMGDILEAAKNYNLELTP | -0.112
22 | HMDISPAAKQRLALIQPLLEKNAEAITDRKLRNAVAKDIANNQNTTVRRVLRLYYRYLATGQVM | 0.192
23 | HMDIVIPIQVKNVSSGEVLDFPSIRAAARDLKFPKTTISLGVRYAGEKAYKGFVMRYRSDDPWPIVQES | -2
24 | HMDIYLDEVNRKILHLLSQGIKTRSLREYINLSMSAIEKRKKHMKELFLVEDGKDETLLNEARNKGF | -1.88
25 | HMDIYLTAFKTTSNQVTLNGIARSDLIISEFMRDIRDAKLFGEPVLQVIQNKNLNNVQARVFELVVPL | 0.115
26 | HMDKATMRWEQIEKFLETHPYIMNADVRALFNVSAATANRILATLTTEGKLVKYREGGHWAYKY | -1.1

Row | Sequence | soluble fraction (log2)
27 | HMDKELILLWDRVKSKVWQMDIQDSQVANWFQRNYHLTVRLRDFDPPVPPDKFTAEQLASFIKDIERHT | -2.41
28 | HMDKGMQTMIDNLHKNTGKTLEEWIALVNRANFAKHGEVISFLKEKHGLTHGYANLVAHRLK | 0.863
29 | HMDKINQEAIEDEAGLWLAKIDGRQLAQEEVRELIAWMRRSDFHREYLITLARQWDGMAALNKLATLFP | -2.08
30 | HMDKLFNRQTLGGVELTQKQIEDLNAGKAIFVEGMQRKDGEVFSSYVKLDEATGRPSYTRYNPDSP | 0.933
31 | HMDKLSYALGLSMGHNFLGSGIKSLNVEDFAKGVEAVYKQEKPEISFDEAKKIINEFFSNLQDEIAE | -1.01
32 | HMDKNLQYADTPKGKLREYIKNLPNGSTVNRQKLAEEFGIKKQSMGTVTEVFQEFPDKNFKFVNP | -0.0476
33 | HMDKPVIEDVSFDDLAYMVGERVIIRTHLRSTRDGELKSFNRAGILVSLRNRPGMELEIPRSTVASAQVVW | -2.39
34 | HMDKQEKIHKKKIIILEALKRLLQNDVYSRITVQAVADEAGFSKGGLLHYFPTKEEMYIEFMEY | -0.103
35 | HMDKRYYYRILGLVGEPTRDQIEAAYETRIAKLRSSDYGDDPLYARRKISEVTMAYKVLTGS | -1.56
36 | HMDKSFLQSLHLIALGIVKNQMDPWELVNGWVEYYLKNKDKYIDHPNLKAVAVLKMKGLFIDHFRKS | -5.84
37 | HMDKSHYEELGVSRTATHAEIRRAYRHLMRTLHPDSNDGRVDAVRITKVNEAWNVLSQSSSRNAYDKSQV | -0.235
38 | HMDKTTIKNEQKKQILIFAEMNLFFKAKDVAELLGLQASRARYLLQELVKDGKIQGIGNNKGRKYQLI | -0.729
39 | HMDKVEQLMQNPVIQEKMSEGDRELLRNASLVVLGRLEDDGSIIQRFVELFGEEAYERLKSELM | -0.0149
40 | HMDLDIGSVLQASRGEKKISLRQLAERTGLTASMLSQIERNLVNPSINTLKVIAAALEIPMYKFFMG | -1.17
41 | HMDLEMLEVEDTIKDLLSQHQKINAIKYYRNYMSEQLNVDMGLRQAKDTIDAIGRGATVDLSVGY | -0.0747
42 | HMDLIEVLAQDTIKKIYNTYVAYKNKVDVFYVAFSGGKDSIVTLDLVQRTLPHNEFKVLFGDTGM | 0.243
43 | HMDLIFQKGDLVFSTEHNQRGIFYEYLEQGQAKISIEKQFFVVAARRLQLLTKREVLYPAGYDLDQLFV | -2.21
44 | HMDLKENQHILQISNKGVQMGNVLKDLIIQTLNITNGNQIKAAKLLAISRAKLRYRIEQLGINISGKNI | 0.000197
45 | HMDLKHNQITMRELLRNKQAYLLLYKEFPMFMTPAILQNIRPLTLQQIIQMVRPYISRPKLNMLLEQLENI | 0.164
46 | HMDLMQRVIIVRPVMQGDYLTRAHLGLQTLSRNGGGGFTDIDDLVGRRAKKSLRAGLVVHNRHL | -0.813
47 | HMDLPAEFSKPELETLFKRGKQSGELSLTEVRDALEAAQLPNKKTQTKVLKVLSDNAIHVLMDG | 0.0744
48 | HMDLPDFTSRERDILARVVQGDSNERIAASLGVSVSTVKTHIGNILRKTGQTNRVRLIVWATRHL | -2.58
49 | HMDLPDYYFRVRENGAVVFRVGTENRQRRIEMVEIATVNVKNGNIKPHGEVDLTKADRLAIGEWLAARQAQ | -1.54
50 | HMDLPRQSQYQALVVSYARRAGIDEAEEDLLAAFEVWRMRHNHDLAGGRTARDFILAYLPQYQRHKE | -1.98
51 | HMDLQNIQNQLNTEFAKSDTRIIFWFDDKGEYEDEVSELQLGDVKLHILDGLNWFYSKYLLNEA | -0.141
52 | HMDLRAPKPIKEMGEEYIKLYQYLRKGESENIVMSKMNISLDDYDYMRSEIEDKLSLYNMLDLLRKP | -0.978

Row | Sequence | soluble fraction (log2)
53 | HMDLRVKRTNKMIMEAFIHLVEQKGYDNITVQEIADEAMINRATFYAHFKDKQDLYDHIFKQAI | -0.902
54 | HMDLSPEQAELAAIRGELGIKIDDYALALNIPRDRLTSYLYGRANVPAEVLISARELRYASSA | -0.0206
55 | HMDMQNIQKGLSAIEPGRTFSREEYYAAIQNGSEMLLKEDALAYSLRKSLSDGDIVRVSWNQYAIP | -0.107
56 | HMDMTPEEFLAWARHKPFGDPFPKTQTVTFLVPLLGVSRTNIFTWISGKVNPSKTSLLLMEALKRENR | -0.493
57 | HMDNEIEQIVEDLNLTLSSLKYTKNQIESILPLIIKEIDDFKKKEKNISFENLLKLAMNHLDND | -0.38
58 | HMDNEIRIPLPSLQRDGFSIGTREDDGSQLVRIMSAGSFGGMIRSFRLPEGMRIEGAKWEGEIVSIRL | -0.00847
59 | HMDNEVTIAVQVNGKLRDKLIVALDTPNEKIEQLALALPKVIQNTSGLTVRKVIVIPNRLVNIVA | -1.92
60 | HMDNIKRGEMFYISRGGASYSGSEQHSDRPAVVVSNDKNNENSNVVEVVYMTTQPKTDLPTHVTVR | 0.0515
61 | HMDNLKELDEILETYGKKKGYLITILQKAQDAYGYISIDIMNRISEFTGIKVAKIYGVATFYAQFRL | 0.0785
62 | HMDNPLSQQEKRILQLISLGKTNQEIADILYLSNGTVRNYISSILNKLSANNRVEAARIAEEHGW | -0.755
63 | HMDNPNVMAQVKSLLASKGLSEQEVKERLKAKGLNIDAMSDAEIAQNRSVIEQTIAELEAEKKKAG | 0.205
64 | HMDNPYEVFIPNSYIGQRLDQTLASLFPQFSRSRLQNWLASGNLLVNGKIVKPKTKILGGEQINILDPYN | -0.608
65 | HMDNTFEEVKEKLLDLLKERPLTPAEVSKRMEEDKNILAQVIQYLLEEEIIKTEDGMLSKVIG | -0.038
66 | HMDNWYIAFNSFLSQNKLTAKNVSELTGLSKPTIDSYKQGKRKPTDENMQIIKDKLGFNISEILYN | -0.0615
67 | HMDPDDEILINIMTKLLTEKQIIIKNKEIFNFLLKRINRTYEEVYNLINKMDKLSLEKKKQLTIPSIKEL | -1.71
68 | HMDPEEETLKNMQRMLQDSGPLKKTEFSLLAKSLGIAEKKARKLIDRGRGRFWTVESGEQKNTQLVTPIQ | -0.108
69 | HMDPERVVGQTGIVHLRIPARQHNTGKVMIEVQGSLREFDAVSEAEEIPTGTPILIVGRTEEGVFIAQPF | -0.286
70 | HMDPGPVLISAQVLDDLEAIRRDGSSNMLDWPAVARLAEVMGMDRTAAWVRTHHREYSAGIFRGFASD | -1.93
71 | HMDPHEEELLRQLIRGDIAGYEVLFHKYYPTFFAFIKGMTKETVVAEDITQNIFMKVWLNRERLDAA | -0.145
72 | HMDPIATLTPREREVLSLMAEGRSNGAIAAALVVGDGAVEKHVSNIFQKLELTPAEGDHRRVLAVLRWLE | -0.909
73 | HMDPLADLFSRIRNAQMRNKKVVTSPASKLRAGILEVLAKEGYIRGYAMTQHASGKNELDIELN | -1.05
74 | HMDPNAITSAQVTKLQVLANEKGFAERQARLTMWAEVIGRNVGTANELTKAEAHKLIEHMDALPV | -0.691
75 | HMDPNFKYIIRIANSDVSGEQKLAYALTSIRGIGERTSNAIIQKLGLDSTQLAGKLTDKNVEDIESA | 0.092
76 | HMDPPQEVWDLTRSYLDSMNRPVHGHKSPQETYLRQVKSHRLPATALWDYFMAQRFHAVHATSESAA | -0.127
77 | HMDPPYKDKNLHELLLKINNLNILKKDSVIILHRHKKQKEIFPSNFKIIEQKQYGISKIIFLTVL | -0.00334

Source: the domain aggregation screens of Martell et al. (2025)
